The source of these data is patent publication US6361998B1, “Efficient culture of stem cells for the production of hemoglobin” (Hemosol Inc., priority 1999, dated 2002).

For one assay, the system named is BaF3 cells. Briefly: Cytokine-dependency growth of BaF3 cells transfected with human EpoR constructs. It is filed as cell-based, murine. The settings on record: for growth of BaF3 transfectants: no exogenous IL-3. On the procedure:
The functionality of the EpoR(t439; R154C) was tested and compared to the wild-type EpoR (wtEpoR) and EpoR(t439) using the BaF3 cell line. The cDNAs encoding these three different EpoRs were subcloned into the pcDNA3.1 expression vector, which provides high-level constitutive expression of proteins in mammalian cells and also contains the neomycin gene for the selection of stable transfectant with G418. The vector constructs were electroporated into BaF3 cells and stable transfectants were isolated in the presence of 600 ug/ml G418. BaF3 transfectants were maintained in RPMI-1640 with 10% FBS and 5% WEHI conditioned medium (a source of murine IL-3), except during the cytokine-dependency studies when cells were maintained in RPMI-1640 plus 10% FBS, along with the indicated cytokines. Growth of the different EpoR transfectants in the presence of either murine IL-3 or two different doses of Epo was compared to that of the parental (non-transfected) BaF3 cells (FIG. 7). […] All three EpoR constructs encode functional receptors that allow expansion of the BaF3 cells in the presence of Epo without exogenous IL-3.

Assay [1] relates to erythroid-cultured CD34^+lin^- cells. Briefly: Methylcellulose colony-forming assay after 14 days liquid culture in G418. It is filed as cell-based, human. The settings on record: after 14 days liquid culture with 500 ug/ml G418. How it is done: Cells transfected with either EpoR(t439; R154C)/pcDNA3.1 or the pcDNA3.1 vector alone were placed in liquid culture (IMDM, 1% BSA, 10 ng/ml rhIL-3, 50 ng/ml SCF and 2 U/ml EPO) in the presence of 500 ug/ml G418 for 14 days. At this time, cells were counted for viability by trypan-blue dye exclusion and methylcellose colony-forming assays were performed in IMDM, 1% methylcellulose, 30% FBS, 1% BSA, 10^−4 M β mercaptoethanol, and […] glutamine, IL-3 (10 ng/ml), SCF (50 ng/ml), EPO (2 U/ml) and 500 ug/ml G418. […] No colonies were detected in the untransfected or “mock” transfected controls. Thus, expression of the EpoR(t439; R154C)/pcDNA3.1 plasmid not only conferred G418 resistance but increased the number of erythroid progenitors detectable after 14 days of liquid culture.

The test system is the same in assay [2]. Briefly: Methylcellulose colony-forming assay two to three days after transfection of cultured erythroid cells. It is filed as cell-based, human. The settings on record: for # of erythroid colonies in EpoR(t439; R154C) transfected samples: BFU-E and CFU-E; for increase in erythroid colonies: versus untransfected or mock transfected control. How it is done: CD34^+lin^− cells cultured for 7 to 10 days in EPSFM+LDL were washed in EB and subjected to electroporation in the presence of EpoR(t439; R154C)/pcDNA3.1 expression vector as described in Example 3. Two to three days post-transfection, aliquots of untransfected and EpoR(t439; R154C)/pcDNA3.1 transfected cells were counted for viability by trypan-blue dye exclusion and methylcellose colony-forming assays were performed in IMDM, 1% methylcellulose, 30% FBS, 1% BSA, 10^−4 M β mercaptoethanol, and […] glutamine, IL-3 (10 ng/ml), SCF (50 ng/ml) and EPO (2 U/ml).

B1: EpoR(t439; R154C): human EpoR truncated at amino acid 439 with R154C point mutation; constitutively active (SEQ ID NOS 6 and 7) (protein, listed as Homo sapiens)
chain: MDHLGASLWPQVGSLCLLLAGAAWAPPPNLPDPKFESKAALLAARGPEELLCFTERLEDLVCFWEEAASAGVGPGNYSFSYQLEDEPWKLCRLHQAPTARGAVRFWCSLPTADTSSFVPLELRVTAASGAPRYHRVIHINEVVLLDAPVGLVACLADESGHVVLRWLPPPETPMTSHIRYEVDVSAGNGAGSVQRVEILEGRTECVLSNLRGRTRYTFAVRARMAEPSFGGFWSAWSEPVSLLTPSDLDPLILTLSLILVVILVLLTVLALLSHRRALKQKIWPGIPSPESEFEGLFTTHKGNFQLWLYQNDGCLWWSPCTPFTEDPPASLEVLSERCWGTMQAVEPGTDDEGPLLEPVGSEHAQDTYLVLDKWLLPRNPPSEDLPGPGGSVDIVAMDEGSEASSCSSALASKPSPEGASAASFEYTILDPSSQLLRP
For B1, the “growth of BaF3 transfectants” value with BaF3 cells (0.02 U/ml Epo) and in the assay on BaF3 cells (2 U/ml Epo) was “grew in the presence of either 0.02 or 2 U/ml Epo but less than in the presence of IL-3” in each case. For the same molecule, the “expansion of BaF3 cells” value in the assay on BaF3 cells (absence of exogenous cytokines) is recorded as “supported expansion”. Further, the “functionality of the EpoR” value in the assay with BaF3 cells (conclusion from BaF3 growth) is on record as “constitutively active form of the EpoR”. Besides, the “erythroid colonies compared to pcDNA3.1 vector alone” value in assay [1] is reported as “More erythroid colonies”. The “# of erythroid colonies in EpoR(t439; R154C) transfected samples” value in assay [2] (Experiment # 1) amounted to 428; in assay [2] (Experiment # 2) it was 522; in assay [2] (Experiment # 3) it was 66. For the same molecule, the “increase in erythroid colonies” value in assay [2] (Experiment # 1) is on record as “+388”; in assay [2] (Experiment # 2), “+98”; in assay [2] (Experiment # 3), “+66”.
